The text below walks through data of paper PMC11862925.

For assay [1], the target named is B.1.617.1/3 variant RBD (L452R, E484Q) (SARS-CoV-2) (UniProt P0DTC2). Kind of assay: BLI. For orientation: BLI is a label-free optical method that tracks binding on a fibre tip over time.
The target in assay [2] is B.1.351 variant RBD (K417N, E484K, N501Y) (SARS-CoV-2) (UniProt P0DTC2). In words: BLI.

Consider “ACE2-COMP (from UniProt Q9BYF1 19-615; P35444 29-73)”, for which the percent of bound ACE2-COMP retained after 8 h of dissociation in assay [1] and in assay [2] was 90% each time.
